This note sets out measurements from EP4796129A1 (Celltrion, Inc., dated 2025).

Substitutions are numbered along the chain they refer to.

Assay [1] addresses T1, recombinant human Nectin-3 (human, UniProt Q9NQS3 58-404, limits assumed).
T1 construct: Recombinant protein; construct not described
The experiment in a line: ELISA. In general terms: In an ELISA, binding on a coated surface is turned into a signal by an enzyme label.

The target in assay [2] is T2, recombinant human Nectin-2 (human, UniProt Q92692 32-360, limits assumed).
T2 construct: Recombinant protein; construct not described
T2 sequence (looked up): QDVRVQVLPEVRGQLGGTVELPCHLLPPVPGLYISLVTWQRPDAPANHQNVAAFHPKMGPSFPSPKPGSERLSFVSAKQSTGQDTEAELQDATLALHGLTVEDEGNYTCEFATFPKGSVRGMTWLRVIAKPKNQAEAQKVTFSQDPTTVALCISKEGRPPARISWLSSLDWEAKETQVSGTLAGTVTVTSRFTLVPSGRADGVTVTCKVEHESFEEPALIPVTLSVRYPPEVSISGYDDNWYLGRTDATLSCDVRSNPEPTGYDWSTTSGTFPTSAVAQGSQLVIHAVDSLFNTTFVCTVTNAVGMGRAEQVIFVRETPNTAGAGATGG
The assay can be described thus: ELISA.

The target of assay [3] is T3, recombinant human Nectin-1 (human, UniProt Q15223 31-334, limits assumed).
T3 construct: Recombinant protein; construct not described
T3 sequence (looked up): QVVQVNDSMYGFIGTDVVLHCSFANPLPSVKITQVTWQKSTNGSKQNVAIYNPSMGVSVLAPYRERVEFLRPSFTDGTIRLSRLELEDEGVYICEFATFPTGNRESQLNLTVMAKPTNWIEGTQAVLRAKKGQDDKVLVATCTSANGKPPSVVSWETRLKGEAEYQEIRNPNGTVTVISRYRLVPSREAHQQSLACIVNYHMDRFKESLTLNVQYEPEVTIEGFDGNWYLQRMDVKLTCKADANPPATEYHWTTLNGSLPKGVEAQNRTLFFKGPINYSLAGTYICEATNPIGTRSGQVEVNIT
The assay can be described thus: ELISA.

The target of assay [4] is T4, recombinant cynomolgus monkey Nectin-4 protein (cynomolgus monkey, UniProt A0A2K5WES1 32-349).
T4 construct: Recombinant protein; construct not described; also called cynomolgus Nectin-4
T4 sequence: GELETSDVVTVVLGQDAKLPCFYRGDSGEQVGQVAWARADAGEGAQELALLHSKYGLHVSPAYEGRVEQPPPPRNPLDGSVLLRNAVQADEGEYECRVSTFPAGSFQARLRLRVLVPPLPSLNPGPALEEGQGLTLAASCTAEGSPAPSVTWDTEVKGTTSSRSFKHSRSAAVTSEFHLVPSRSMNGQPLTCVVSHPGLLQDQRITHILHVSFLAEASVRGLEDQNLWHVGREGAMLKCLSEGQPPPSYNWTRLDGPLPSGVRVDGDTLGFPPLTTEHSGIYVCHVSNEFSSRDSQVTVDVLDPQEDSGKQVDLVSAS
The experiment in a line: ELISA on recombinant protein.

The target of assay [5] is T5, recombinant human Nectin-4 protein (human, UniProt Q96NY8 32-349).
T5 construct: Recombinant protein; construct not described
T5 sequence (looked up): T4 sequence with A39V, V230I
The assay can be described thus: ELISA on recombinant protein.

Assay [6] has as its target T6, recombinant rat Nectin-4 protein (rat, UniProt D3ZET1 31-348).
T6 construct: Recombinant protein; construct not described
T6 sequence: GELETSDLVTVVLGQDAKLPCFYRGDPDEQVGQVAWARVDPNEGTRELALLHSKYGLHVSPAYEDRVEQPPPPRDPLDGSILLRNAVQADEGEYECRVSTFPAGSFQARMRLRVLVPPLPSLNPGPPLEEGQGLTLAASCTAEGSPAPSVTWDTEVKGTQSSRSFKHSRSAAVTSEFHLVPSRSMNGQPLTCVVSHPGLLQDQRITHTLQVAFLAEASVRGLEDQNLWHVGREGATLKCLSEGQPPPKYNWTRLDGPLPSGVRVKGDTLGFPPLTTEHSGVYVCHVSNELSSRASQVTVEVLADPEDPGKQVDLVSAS
The experiment in a line: ELISA on recombinant protein.

Assay [7] addresses T4, recombinant cynomolgus monkey Nectin-4 …. The assay can be described thus: BLI, antibody as loading sample. Background: Biolayer interferometry detects binding as a change in optical thickness at a sensor tip.
Assay [8] deals with T5, recombinant human Nectin-4 protein. The experiment in a line: BLI, antibody as loading sample.
The target in assay [9] is T6, recombinant rat Nectin-4 protein. The assay can be described thus: BLI, antibody as loading sample.

T1 sequence (Q9NQS3 58-404 limits assumed): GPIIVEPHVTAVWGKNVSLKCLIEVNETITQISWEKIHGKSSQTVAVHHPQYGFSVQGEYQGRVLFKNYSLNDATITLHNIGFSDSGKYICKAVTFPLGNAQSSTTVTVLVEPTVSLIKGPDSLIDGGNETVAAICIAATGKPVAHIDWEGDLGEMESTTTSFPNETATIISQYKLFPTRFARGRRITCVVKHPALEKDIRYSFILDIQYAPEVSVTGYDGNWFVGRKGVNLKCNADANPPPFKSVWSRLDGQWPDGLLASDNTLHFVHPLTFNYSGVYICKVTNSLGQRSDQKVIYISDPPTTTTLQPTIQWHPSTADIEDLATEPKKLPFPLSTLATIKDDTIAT

B1: Enfortumab-PBX-7016 ADC (antibody, V domains shown)
VH: EVQLVESGGGLVQPGGSLRLSCAASGFTFSSYNMNWVRQAPGKGLEWVSYISSSSSTIYYADSVKGRFTISRDNAKNSLSLQMNSLRDEDTAVYYCARAYYYGMDVWGQGTTVTVSS
VL: DIQMTQSPSSVSASVGDRVTITCRASQGISGWLAWYQQKPGKAPKFLIYAASTLQSGVPSRFSGSGSGTDFTLTISSLQPEDFATYYCQQANSFPPTFGGGTKVEIKR
modifications: mc-GGFG-PBX-7016 linker-payload on cysteine thiols freed by TCEP reduction of the disulfides; positions not given
The EC50 is the midpoint of the concentration-response curve. In general, Kd refers to the concentration at which binding is half-saturated. On to B1, for which the binding result in assay [1], in assay [2] and in assay [3] was “no binding” throughout. For the same molecule, the EC50 turned out to be 7.94 ng/mL in [4], 8.31 ng/mL in [5] and 9.88 ng/mL in assay [6]. Further, the Kd in assay [7] worked out at 1.78 nM; in assay [8] it was 2.89 nM; in assay [9] it was 3.2 nM. Besides, the Response in [7] was found to be 0.643; in assay [8], 0.621; in assay [9] it was 0.511.

B2: Enfortumab mAb (antibody, human IgG1, kappa, V domains shown)
VH: B1 VH
VL: B1 VL
notes: Naked antibody (source: Abinvivo); also called anti-Nectin-4 antibody (Enfortumab); anti-Nectin4 mAb
The term koff denotes the first-order rate constant of dissociation. In general, kon refers to the rate constant with which the complex forms. With B2, the binding result in [1], in [2] and in assay [3] was “no binding” throughout. The EC50 in assay [4] came out at 8.43 ng/mL; in [5] it was 8.38 ng/mL; in assay [6] it was 9.63 ng/mL. Besides, the Kd turned out to be 6.05 nM in assay [7], 5.02 nM in assay [8] and 3.96 nM in [9]. Moreover, the Response in assay [7] is 0.67; in [8] it was 0.681; in [9], 0.606. In addition, the koff turned out to be 0.00191 s⁻¹ in assay [7], 0.00136 s⁻¹ in assay [8] and 0.00149 s⁻¹ in assay [9]. Also, the kon in assay [7] is 316000 M⁻¹ s⁻¹; in assay [8], 271000 M⁻¹ s⁻¹; in assay [9], 376000 M⁻¹ s⁻¹.
